Sequences and labels used below:
B2: HAdV-F41 hexon protein (natural protein, human adenovirus F41 (strain Tak))
chain: MATPSMMPQWSYMHIAGQDASEYLSPGLVQFARATDTYFSLGNKFRNPTVAPTHDVTTDRSQRLTLRFVPVDREDTAYSYKVRFTLAVGDNRVLDMASTYFDIRGVLDRGPSFKPYSGTAYNSLAPKTAPNPCEWKDNNKIKVRGQAPFIGTNINKDNGIQIGTDTTNQPIYADKTYQPEPQVGQTQWNSEVGAAQKVAGRVLKDTTPMLPCYGSYAKPTNEKGGQASLITNGTDQTLTSDVNLQFFALPSTPNEPKAVLYAENVSIEAPDTHLVYKPDVAQGTISSADLLTQQAAPNRPNYIGFRDNFIGLMYYNSTGNMGVLAGQASQLNAVVDLQDRNTELSYQLMLDALGDRSRYFSMWNQAVDSYDPDVRIIENHGVEDELPNYCFPLGGSAATDTYSGIKANGQTWTADDNYADRGAEIESGNIFAMEINLAANLWRSFLYSNVALYLPDSYKITPDNITLPENKNTYAYMNGRVAVPSALDTYVNIGARWSPDPMDNVNPFNHHRNAGLRYRSMLLGNGRYVPFHIQVPQKFFAIKNLLLLPGSYTYEWNFRKDVNMILQSSLGNDLRVDGASVRFDSINLYANFFPMAHNTASTLEAMLRNDTNDQSFNDYLCAANMLYPIPSNATSVPISIPSRNWAAFRGWSFTRLKTKETPSLGSGFDPYFTYSGSVPYLDGTFYLNHTFKKVSIMFDSSVSWPGNDRLLTPNEFEIKRTVDGEGYNVAQCNMTKDWFLIQMLSHYNIGYQGFYVPESYKDRMYSFFRNFQPMSRQVVNTTTYKEYQNVTLPFQHNNSGFVGYMGPTMREGQAYPANYPYPLIGQTAVPSLTQKKFLCDRTMWRIPFSSNFMSMGALTDLGQNMLYANSAHALDMTFEVDPMDEPTLLYVLFEVFDVVRIHQPHRGVIEAVYLRTPFSAGNATT

Test in all cases: cryo-EM structure
In data set [1] the target is HAdV-F41 penton base protein, virion-bound (human adenovirus F41 (strain Tak)).
The target of the data set “HAdV-F41 hexon protein” is B2.
The data set “cryo-EM structure” concerns the molecule itself.

Experimental findings from publication PMC7793593 (Science Advances, 2021) are described below.

In general, stoichiometry N refers to the number of molecules, sites or subunits per partner or assembly.

“HAdV-F41 penton base protein, virion-bound (natural protein)” registered a stoichiometry N in data set [1] of 5.

B1: HAdV-F41 capsid protein IX (natural protein, human adenovirus F41 (strain Tak), UniProt P32539 1-133, looked up)
chain: MSGSMEGNAVSFKGGVFSPYLTTRLPAWAGVRQNVMGSNVDGRPVAPANSATLTYATVGSSVDTAAAAAASAAASTARGMAADFGLYNQLAASRSLREEDALSVVLTRMEELSQQLQDLFAKVALLNPPANAS
With B1, the binding result with HAdV-F41 hexon protein is on record as “binds”. Moreover, in “cryo-EM structure”, the “stoichiometry N” value turned out to be 3.

In the case of B2, in the data set “cryo-EM structure”, the “stoichiometry N” value worked out at 3.
